According to patent US20220010021A1 (Sanofi, published 2022):

T1: human beta-Klotho (KLB) (human, UniProt Q86Z14 53-997)
T1 construct: bought protein, used as analyte in the off-rate screening; also called human KLB; β-Klotho
T1 sequence (looked up): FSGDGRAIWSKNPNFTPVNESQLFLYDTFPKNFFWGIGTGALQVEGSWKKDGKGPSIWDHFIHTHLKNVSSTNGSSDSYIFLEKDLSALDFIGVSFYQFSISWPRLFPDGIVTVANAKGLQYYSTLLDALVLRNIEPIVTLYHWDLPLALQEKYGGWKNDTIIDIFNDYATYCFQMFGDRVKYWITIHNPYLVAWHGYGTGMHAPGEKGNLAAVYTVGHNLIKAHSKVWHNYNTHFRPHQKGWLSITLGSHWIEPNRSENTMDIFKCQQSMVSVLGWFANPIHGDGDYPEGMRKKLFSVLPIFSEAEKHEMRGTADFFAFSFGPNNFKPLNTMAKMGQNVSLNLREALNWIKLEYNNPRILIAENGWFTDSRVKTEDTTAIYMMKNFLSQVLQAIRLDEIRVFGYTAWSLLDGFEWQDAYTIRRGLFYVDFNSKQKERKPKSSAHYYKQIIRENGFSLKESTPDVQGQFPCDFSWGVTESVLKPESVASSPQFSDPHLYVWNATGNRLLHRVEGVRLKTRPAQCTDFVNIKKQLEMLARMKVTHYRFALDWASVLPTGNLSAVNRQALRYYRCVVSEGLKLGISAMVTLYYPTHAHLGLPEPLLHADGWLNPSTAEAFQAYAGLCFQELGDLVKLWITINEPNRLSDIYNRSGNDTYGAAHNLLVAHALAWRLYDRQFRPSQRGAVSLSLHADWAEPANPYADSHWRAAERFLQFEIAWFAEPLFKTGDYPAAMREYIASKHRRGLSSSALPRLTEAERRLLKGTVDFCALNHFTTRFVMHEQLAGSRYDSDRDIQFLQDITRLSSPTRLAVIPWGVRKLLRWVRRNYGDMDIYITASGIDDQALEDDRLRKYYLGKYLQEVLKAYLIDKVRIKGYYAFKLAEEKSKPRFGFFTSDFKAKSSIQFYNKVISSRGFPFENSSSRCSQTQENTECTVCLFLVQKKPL


How the values were obtained:
[1] = biological target: human FGFR1c/KLB receptor complex on iLite FGF21 Assay Ready Cells (human, UniProt P11362 22-822; Q86Z14 1-1044); experiment: cell-based or functional assay; on Mean E max (%): reference of the scale not given here
human beta-Klotho (KLB) = biological target: T1, human beta-Klotho (KLB); experiment: BLI off-rate screening, mAb captured, KLB analyte;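 further: Off-rate taken from the dissociation phase, biosensors held in D-PBS with 0.1% BSA over 1800 s, antibody supernatants diluted to 25 µg/mL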

Sequence of human FGFR1c/KLB receptor complex on iLite FGF21 Assay Ready Cells (P11362 22-822, chain 1 of 2): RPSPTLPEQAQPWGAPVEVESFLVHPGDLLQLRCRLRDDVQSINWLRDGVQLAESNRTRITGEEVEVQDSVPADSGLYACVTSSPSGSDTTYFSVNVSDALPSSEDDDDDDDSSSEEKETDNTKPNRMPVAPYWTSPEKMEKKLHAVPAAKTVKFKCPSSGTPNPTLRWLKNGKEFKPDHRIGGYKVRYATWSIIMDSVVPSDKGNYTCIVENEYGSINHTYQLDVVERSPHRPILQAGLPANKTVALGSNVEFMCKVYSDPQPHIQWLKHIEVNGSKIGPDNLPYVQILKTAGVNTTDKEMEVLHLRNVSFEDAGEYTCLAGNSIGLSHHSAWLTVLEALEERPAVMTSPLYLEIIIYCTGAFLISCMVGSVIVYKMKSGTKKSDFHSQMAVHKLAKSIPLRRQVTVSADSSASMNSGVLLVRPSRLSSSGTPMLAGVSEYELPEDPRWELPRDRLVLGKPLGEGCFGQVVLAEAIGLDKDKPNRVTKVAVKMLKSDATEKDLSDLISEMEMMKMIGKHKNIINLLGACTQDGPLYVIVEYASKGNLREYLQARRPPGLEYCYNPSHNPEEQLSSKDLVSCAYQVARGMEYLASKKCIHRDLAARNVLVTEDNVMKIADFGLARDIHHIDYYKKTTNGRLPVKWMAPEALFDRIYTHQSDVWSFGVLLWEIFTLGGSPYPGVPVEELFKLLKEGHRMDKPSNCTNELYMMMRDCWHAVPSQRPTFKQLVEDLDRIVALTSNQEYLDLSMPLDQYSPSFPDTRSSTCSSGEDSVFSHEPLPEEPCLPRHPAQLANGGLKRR
Sequence of human FGFR1c/KLB receptor complex on iLite FGF21 Assay Ready Cells (Q86Z14 whole entry, chain 2 of 2): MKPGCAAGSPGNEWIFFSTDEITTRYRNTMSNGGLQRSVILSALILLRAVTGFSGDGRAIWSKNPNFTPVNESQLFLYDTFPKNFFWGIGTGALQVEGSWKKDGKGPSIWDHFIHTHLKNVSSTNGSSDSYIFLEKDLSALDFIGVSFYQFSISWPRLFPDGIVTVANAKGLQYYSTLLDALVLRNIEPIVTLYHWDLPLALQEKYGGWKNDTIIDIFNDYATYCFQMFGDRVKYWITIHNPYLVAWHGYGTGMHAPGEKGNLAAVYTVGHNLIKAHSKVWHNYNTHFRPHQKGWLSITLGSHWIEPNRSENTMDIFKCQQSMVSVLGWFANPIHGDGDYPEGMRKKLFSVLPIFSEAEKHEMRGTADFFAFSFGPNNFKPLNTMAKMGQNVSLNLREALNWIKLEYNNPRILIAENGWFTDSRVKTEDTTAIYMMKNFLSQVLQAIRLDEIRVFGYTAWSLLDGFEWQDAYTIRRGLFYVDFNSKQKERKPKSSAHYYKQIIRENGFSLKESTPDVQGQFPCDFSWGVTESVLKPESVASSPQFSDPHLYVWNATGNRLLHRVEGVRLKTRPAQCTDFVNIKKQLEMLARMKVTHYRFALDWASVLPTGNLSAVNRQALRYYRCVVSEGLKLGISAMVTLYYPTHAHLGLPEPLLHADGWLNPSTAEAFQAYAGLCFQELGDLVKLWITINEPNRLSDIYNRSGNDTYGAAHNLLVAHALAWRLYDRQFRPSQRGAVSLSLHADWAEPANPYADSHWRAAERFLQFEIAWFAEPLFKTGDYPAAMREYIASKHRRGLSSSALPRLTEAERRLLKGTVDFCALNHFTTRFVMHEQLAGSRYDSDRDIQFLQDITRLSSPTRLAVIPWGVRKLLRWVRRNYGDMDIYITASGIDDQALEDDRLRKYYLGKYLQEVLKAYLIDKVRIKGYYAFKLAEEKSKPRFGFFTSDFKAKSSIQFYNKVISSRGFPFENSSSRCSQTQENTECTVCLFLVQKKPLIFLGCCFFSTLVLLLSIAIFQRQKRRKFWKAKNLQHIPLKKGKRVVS

Row | Binder | Mean E max (%) [1] | Mean EC50 [1] | koff (human beta-Klotho (KLB))
1 | 16H7 variant with light chain substitution S51A (antibody, V domains shown) VH: not shown VL: SYVLTQPPSVSVAPGQTARITCGGNNIGSESVHWYQQKPGQAPVLVVYDDADRPSGIPERFSGSNSGNTATLTISRVEAGDEADYYCQVWDGNSDHVVFGGGTKLTVLG | 109% | 0.123 nM | 4.7e-05 s⁻¹
2 | 16H7 variant with light chain substitution S55R (antibody, V domains shown) VH: not shown VL: SYVLTQPPSVSVAPGQTARITCGGNNIGSESVHWYQQKPGQAPVLVVYDDSDRPRGIPERFSGSNSGNTATLTISRVEAGDEADYYCQVWDGNSDHVVFGGGTKLTVLG | 100% | 0.143 nM | 4.9e-05 s⁻¹
3 | 16H7 variant with light chain substitution V98L (antibody, V domains shown) VH: not shown VL: SYVLTQPPSVSVAPGQTARITCGGNNIGSESVHWYQQKPGQAPVLVVYDDSDRPSGIPERFSGSNSGNTATLTISRVEAGDEADYYCQVWDGNSDHVLFGGGTKLTVLG | 105% | 0.121 nM | 0.00013 s⁻¹
4 | 16H7 variant with light chain substitution V98A (antibody, V domains shown) VH: not shown VL: SYVLTQPPSVSVAPGQTARITCGGNNIGSESVHWYQQKPGQAPVLVVYDDSDRPSGIPERFSGSNSGNTATLTISRVEAGDEADYYCQVWDGNSDHVAFGGGTKLTVLG | 99% | 0.139 nM | 4.6e-05 s⁻¹
5 | 16H7 variant with light chain substitution S55Y (antibody, V domains shown) VH: not shown VL: SYVLTQPPSVSVAPGQTARITCGGNNIGSESVHWYQQKPGQAPVLVVYDDSDRPYGIPERFSGSNSGNTATLTISRVEAGDEADYYCQVWDGNSDHVVFGGGTKLTVLG | 113% | 0.126 nM | 1.8e-05 s⁻¹
6 | 16H7 variant with light chain substitution V98K (antibody, V domains shown) VH: not shown VL: SYVLTQPPSVSVAPGQTARITCGGNNIGSESVHWYQQKPGQAPVLVVYDDSDRPSGIPERFSGSNSGNTATLTISRVEAGDEADYYCQVWDGNSDHVKFGGGTKLTVLG | 106% | 0.111 nM | 9e-05 s⁻¹
7 | 16H7 variant with light chain substitution V98H (antibody, V domains shown) VH: not shown VL: SYVLTQPPSVSVAPGQTARITCGGNNIGSESVHWYQQKPGQAPVLVVYDDSDRPSGIPERFSGSNSGNTATLTISRVEAGDEADYYCQVWDGNSDHVHFGGGTKLTVLG | 103% | 0.107 nM | 1.8e-05 s⁻¹
8 | 16H7 variant with light chain substitution S51C (antibody, V domains shown) VH: not shown VL: SYVLTQPPSVSVAPGQTARITCGGNNIGSESVHWYQQKPGQAPVLVVYDDCDRPSGIPERFSGSNSGNTATLTISRVEAGDEADYYCQVWDGNSDHVVFGGGTKLTVLG | 112% | 0.147 nM | 4.7e-05 s⁻¹
9 | 16H7 variant with light chain substitution S55G (antibody, V domains shown) VH: not shown VL: SYVLTQPPSVSVAPGQTARITCGGNNIGSESVHWYQQKPGQAPVLVVYDDSDRPGGIPERFSGSNSGNTATLTISRVEAGDEADYYCQVWDGNSDHVVFGGGTKLTVLG | 104% | 0.128 nM | 3.5e-05 s⁻¹
10 | 16H7 variant with light chain substitution S51E (antibody, V domains shown) VH: not shown VL: SYVLTQPPSVSVAPGQTARITCGGNNIGSESVHWYQQKPGQAPVLVVYDDEDRPSGIPERFSGSNSGNTATLTISRVEAGDEADYYCQVWDGNSDHVVFGGGTKLTVLG | 107% | 0.108 nM | 7.2e-05 s⁻¹
11 | 16H7 variant with light chain substitution S55T (antibody, V domains shown) VH: not shown VL: SYVLTQPPSVSVAPGQTARITCGGNNIGSESVHWYQQKPGQAPVLVVYDDSDRPTGIPERFSGSNSGNTATLTISRVEAGDEADYYCQVWDGNSDHVVFGGGTKLTVLG | 100% | 0.109 nM | 1.3e-05 s⁻¹
12 | 16H7 variant with light chain substitution S51V (antibody, V domains shown) VH: not shown VL: SYVLTQPPSVSVAPGQTARITCGGNNIGSESVHWYQQKPGQAPVLVVYDDVDRPSGIPERFSGSNSGNTATLTISRVEAGDEADYYCQVWDGNSDHVVFGGGTKLTVLG | 110% | 0.139 nM | 2e-05 s⁻¹
13 | 16H7 variant with light chain substitution S55C (antibody, V domains shown) VH: not shown VL: SYVLTQPPSVSVAPGQTARITCGGNNIGSESVHWYQQKPGQAPVLVVYDDSDRPCGIPERFSGSNSGNTATLTISRVEAGDEADYYCQVWDGNSDHVVFGGGTKLTVLG | 91% | 0.244 nM | 6.3e-05 s⁻¹
14 | 16H7 variant with light chain substitution S51D (antibody, V domains shown) VH: not shown VL: SYVLTQPPSVSVAPGQTARITCGGNNIGSESVHWYQQKPGQAPVLVVYDDDDRPSGIPERFSGSNSGNTATLTISRVEAGDEADYYCQVWDGNSDHVVFGGGTKLTVLG | 97% | 0.098 nM | 3.7e-05 s⁻¹
15 | 16H7 variant with light chain substitution S55D (antibody, V domains shown) VH: not shown VL: SYVLTQPPSVSVAPGQTARITCGGNNIGSESVHWYQQKPGQAPVLVVYDDSDRPDGIPERFSGSNSGNTATLTISRVEAGDEADYYCQVWDGNSDHVVFGGGTKLTVLG | 109% | 0.146 nM | 3.6e-05 s⁻¹
16 | 16H7 variant with light chain substitution S55I (antibody, V domains shown) VH: not shown VL: SYVLTQPPSVSVAPGQTARITCGGNNIGSESVHWYQQKPGQAPVLVVYDDSDRPIGIPERFSGSNSGNTATLTISRVEAGDEADYYCQVWDGNSDHVVFGGGTKLTVLG | 110% | 0.133 nM | 1.3e-05 s⁻¹
17 | 16H7 variant with light chain substitution S55L (antibody, V domains shown) VH: not shown VL: SYVLTQPPSVSVAPGQTARITCGGNNIGSESVHWYQQKPGQAPVLVVYDDSDRPLGIPERFSGSNSGNTATLTISRVEAGDEADYYCQVWDGNSDHVVFGGGTKLTVLG | 97% | 0.126 nM | 8.4e-05 s⁻¹
18 | 16H7 variant with light chain substitution S51G (antibody, V domains shown) VH: not shown VL: SYVLTQPPSVSVAPGQTARITCGGNNIGSESVHWYQQKPGQAPVLVVYDDGDRPSGIPERFSGSNSGNTATLTISRVEAGDEADYYCQVWDGNSDHVVFGGGTKLTVLG | 104% | 0.129 nM | 0.0001 s⁻¹
19 | 16H7 variant with light chain substitution S55V (antibody, V domains shown) VH: not shown VL: SYVLTQPPSVSVAPGQTARITCGGNNIGSESVHWYQQKPGQAPVLVVYDDSDRPVGIPERFSGSNSGNTATLTISRVEAGDEADYYCQVWDGNSDHVVFGGGTKLTVLG | 100% | 0.131 nM | 4.4e-05 s⁻¹
20 | 16H7 variant with light chain substitution S55E (antibody, V domains shown) VH: not shown VL: SYVLTQPPSVSVAPGQTARITCGGNNIGSESVHWYQQKPGQAPVLVVYDDSDRPEGIPERFSGSNSGNTATLTISRVEAGDEADYYCQVWDGNSDHVVFGGGTKLTVLG | 106% | 0.141 nM | 3.8e-05 s⁻¹
21 | 16H7 variant with light chain substitution V98G (antibody, V domains shown) VH: not shown VL: SYVLTQPPSVSVAPGQTARITCGGNNIGSESVHWYQQKPGQAPVLVVYDDSDRPSGIPERFSGSNSGNTATLTISRVEAGDEADYYCQVWDGNSDHVGFGGGTKLTVLG | 105% | 0.118 nM | 1.1e-05 s⁻¹
22 | 16H7 variant with light chain substitution S55P (antibody, V domains shown) VH: not shown VL: SYVLTQPPSVSVAPGQTARITCGGNNIGSESVHWYQQKPGQAPVLVVYDDSDRPPGIPERFSGSNSGNTATLTISRVEAGDEADYYCQVWDGNSDHVVFGGGTKLTVLG | 99% | 0.109 nM | 3.2e-05 s⁻¹
23 | 16H7 variant with light chain substitution S55F (antibody, V domains shown) VH: not shown VL: SYVLTQPPSVSVAPGQTARITCGGNNIGSESVHWYQQKPGQAPVLVVYDDSDRPFGIPERFSGSNSGNTATLTISRVEAGDEADYYCQVWDGNSDHVVFGGGTKLTVLG | 97% | 0.095 nM | 2.4e-05 s⁻¹
24 | 16H7 variant with light chain substitution S55H (antibody, V domains shown) VH: not shown VL: SYVLTQPPSVSVAPGQTARITCGGNNIGSESVHWYQQKPGQAPVLVVYDDSDRPHGIPERFSGSNSGNTATLTISRVEAGDEADYYCQVWDGNSDHVVFGGGTKLTVLG | 111% | 0.122 nM | 4e-06 s⁻¹
25 | 16H7 variant with light chain substitution S55N (antibody, V domains shown) VH: not shown VL: SYVLTQPPSVSVAPGQTARITCGGNNIGSESVHWYQQKPGQAPVLVVYDDSDRPNGIPERFSGSNSGNTATLTISRVEAGDEADYYCQVWDGNSDHVVFGGGTKLTVLG | 111% | 0.141 nM | 1.7e-05 s⁻¹
